Experimental data from article PMC4538832, “Structures of the T. brucei kRNA editing factor MRB1590 reveal unique RNA-binding pore motif contained within an ABC-ATPase fold”.

T1: MRB1590(10-668) (Trypanosoma brucei, UniProt UPI00067E648B 10-668)
T1 sequence: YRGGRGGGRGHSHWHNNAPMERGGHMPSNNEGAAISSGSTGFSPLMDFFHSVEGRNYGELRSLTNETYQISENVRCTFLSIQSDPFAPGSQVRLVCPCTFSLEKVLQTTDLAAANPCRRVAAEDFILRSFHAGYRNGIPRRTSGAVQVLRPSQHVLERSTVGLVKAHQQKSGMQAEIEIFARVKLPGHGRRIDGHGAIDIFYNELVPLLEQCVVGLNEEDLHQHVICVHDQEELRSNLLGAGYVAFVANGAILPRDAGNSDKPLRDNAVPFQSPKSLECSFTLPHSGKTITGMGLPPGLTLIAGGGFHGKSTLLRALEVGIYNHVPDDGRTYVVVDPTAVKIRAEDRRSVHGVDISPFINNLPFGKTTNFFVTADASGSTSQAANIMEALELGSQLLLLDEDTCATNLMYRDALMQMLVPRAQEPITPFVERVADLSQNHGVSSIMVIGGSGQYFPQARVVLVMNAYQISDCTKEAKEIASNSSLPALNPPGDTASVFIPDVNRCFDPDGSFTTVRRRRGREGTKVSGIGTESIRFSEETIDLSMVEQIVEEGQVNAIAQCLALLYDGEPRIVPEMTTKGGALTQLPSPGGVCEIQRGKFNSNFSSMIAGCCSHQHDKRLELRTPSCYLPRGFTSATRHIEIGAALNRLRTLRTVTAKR


What was measured:
MRB1590(10-668) [1] = molecular target: T1, MRB1590(10-668); test: fluorescence polarization; ADP, Mg2+; FP: 20 mM Tris-HCl pH 7.5, 150 mM NaCl, 5% glycerol, 1 mM MgCl2, 2 mM ADP or AMP-PNP, 1 nM 3'-fluoresceinated RNA (heated to 99 C, slow cooled), 25 C; conditions: protein: recombinant, chain copies: 2
MRB1590 F95A = MRB1590 F95A (Trypanosoma brucei, UniProt UPI00067E648B 10-668, F95A); test: as above; conditions: protein: recombinant; chain copies: 2; label: 3' fluorescein
MRB1590 R199A-R200A = MRB1590 R199A-R200A (Trypanosoma brucei, UniProt UPI00067E648B 10-668, R199A;R200A); test: as above; conditions: protein: recombinant; chain copies: 2; label: 3' fluorescein
MRB1590 Y637A = MRB1590 Y637A (Trypanosoma brucei, UniProt UPI00067E648B 10-668, Y637A); test: fluorescence polarization; ADP, Mg2+; little effect vs wt; FP: 20 mM Tris-HCl pH 7.5, 150 mM NaCl, 5% glycerol, 1 mM MgCl2, 2 mM ADP or AMP-PNP, 1 nM 3'-fluoresceinated RNA (heated to 99 C, slow cooled), 25 C; conditions: protein: recombinant; chain copies: 2; label: 3' fluorescein
MRB1590(10-668) [2] = molecular target: T1, MRB1590(10-668); test: fluorescence polarization; ADP, Mg2+; 1 RNA : 2 subunits; FP: 20 mM Tris-HCl pH 7.5, 150 mM NaCl, 5% glycerol, 1 mM MgCl2, 2 mM ADP or AMP-PNP, 1 nM 3'-fluoresceinated RNA (heated to 99 C, slow cooled), 25 C; conditions: protein: recombinant; chain copies: 2; label: 3' fluorescein
MRB1590 R191A = MRB1590 R191A (Trypanosoma brucei, UniProt UPI00067E648B 10-668, R191A); test: fluorescence polarization; ADP, Mg2+; small effect vs wt; FP: 20 mM Tris-HCl pH 7.5, 150 mM NaCl, 5% glycerol, 1 mM MgCl2, 2 mM ADP or AMP-PNP, 1 nM 3'-fluoresceinated RNA (heated to 99 C, slow cooled), 25 C; conditions: protein: recombinant; chain copies: 2; label: 3' fluorescein
MRB1590(10-668) [3] = molecular target: T1, MRB1590(10-668); test: fluorescence polarization; AMP-PNP (table header says ATP), Mg2+; FP: 20 mM Tris-HCl pH 7.5, 150 mM NaCl, 5% glycerol, 1 mM MgCl2, 2 mM ADP or AMP-PNP, 1 nM 3'-fluoresceinated RNA (heated to 99 C, slow cooled), 25 C; conditions: protein: recombinant; chain copies: 2; label: 3' fluorescein

Binder	Kd (MRB1590(10-668) [1]; label: 3' fluorescein) [µM]	other results
AAAAAAAAAAAAAAA (ssRNA) [A15 RNA]	0.437 ± 0.08	–
UGAUACAAAAAAACAUGACUACAUGAUAAGUA (ssRNA) [NAD7 #1]	0.05 ± 0.004	–
dsGC-rich RNA (dsRNA) RNA 1: AGGCGGGCGGGCGACGGCGGU RNA 2: ACCGCCGUCGCCCGCCCGCCU	–	Kd (MRB1590(10-668) [1]): 0.05 ± 0.015 µM
ACAAUAUCAAGUUUAGGUAUAAAGUAGA (ssRNA) [COX II #1]	0.044 ± 0.002	–
AGGCGGGCGGGCGACGGCGGU (ssRNA) [GC-rich sequence RNA (A6 pause site, 21 mer)]	–	binding signal (MRB1590 F95A): 10 fold reduction vs wt; binding signal (MRB1590 R199A-R200A): 590 fold reduction vs wt; binding result (MRB1590 Y637A): binds; Kd (MRB1590(10-668) [2]): 0.0022 ± 0.0002 µM; binding result (MRB1590 R191A): binds
ACCGCCGUCGCCCGCCCGCCU (ssRNA) [Complement of GC-rich RNA]	0.395 ± 0.095	Kd (MRB1590(10-668) [3]): 0.377 ± 0.069 µM
GAACCUGGUAGGUGUAAUGAAAUAAUUUUGU (ssRNA) [COX II #2]	0.043 ± 0.0016	–
GAUUUUUUGAGUGGGACUGGAGAGAAAGAGCCGUUCGAGC (ssRNA) [RSP12 #2]	0.027 ± 0.0028	–
UUUUUUUUUUUUUUU (ssRNA) [U15 RNA]	0.182 ± 0.03	–
AGAGGCGGGCGGGCGACGGCGGU (structured_RNA) [GC-rich hairpin RNA]	–	binding result (MRB1590(10-668) [1]; label: 3' fluorescein, hairpin): no binding
CUAAUACACUUUUGAUAACAAACUAAAGUAAAAAGGCGAG (ssRNA) [RSP12 #1]	0.063 ± 0.0025	–
GAGAAGGCGAGGGCGACGGGCAAAAGAUUUU (ssRNA) [NAD7 #2]	0.0078 ± 0.0005	–
